The text below walks through data of patent US20070086956A1, “Method for accelerating the rate of mucociliary clearance” (BAYER AKTIENGESELLSCHAFT, priority 1998, published 2007).

For data set [1], the system named is human bronchial epithelial cell (HBE). The data set is described as follows: Short circuit current (Isc) in cultured human bronchial epithelial (HBE) cells, Ussing chamber. Type of data set: cell-based. To be noted: for sodium current: over a 90 minute period, FIG. 17.
Description: Tertiary HBE cell monolayer grown to confluence were mounted in modified Ussing chambers, immersed in Krebs buffer (KBR) solution and bubbled with 95% O2/5% CO2 warmed to 37 C.
Cells were left to equilibrate for 20 minutes before calibrating for background noise and fluid resistance. Transepithelial potential difference was then clamped to 0 mV using a WPI EVC 4000 voltage clamp. Ag/AgCl electrodes were used to monitor Isc. […] Once a response to amiloride was seen, it was washed out with KBR solution. […] 90 minutes following agent treatment, amiloride (10 uM) was added. Once the current was stable forskolin (10 uM) and then bumetanide (100 uM) was added.
Tertiary HBE cell monolayers grown to confluence were mounted in modified Ussing chambers, immersed in Krebs buffer (KBR) solution and bubbled with 95% O2/5% CO2 warmed to 37 C.
Cells were left to equilibrate for 20 minutes before calibrating for background noise and fluid resistance. Transepithelial potential difference was then clamped to 0 mV using a WPI EVC 4000 voltage clamp. Ag/AgCI electrodes were used to monitor Isc. […] Once a response to amiloride was seen, it was washed out with KBR solution. […] 90 minutes following agent treatment, amiloride (10 uM) was added.
The target of the next data set is T1, human plasma kallikrein (Homo sapiens, UniProt P03952).
T1 construct: purchased Sigma (St. Louis, Mo.)
T1 sequence (P03952 391-638 limits assumed): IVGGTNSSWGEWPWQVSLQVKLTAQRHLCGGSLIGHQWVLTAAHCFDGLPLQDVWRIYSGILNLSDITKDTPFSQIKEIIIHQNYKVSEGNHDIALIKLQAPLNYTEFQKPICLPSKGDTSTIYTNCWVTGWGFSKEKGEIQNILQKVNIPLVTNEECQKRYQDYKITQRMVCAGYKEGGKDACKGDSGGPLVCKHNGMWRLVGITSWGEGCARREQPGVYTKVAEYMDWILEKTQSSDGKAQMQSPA
T1 sequence (P03952 20-390 partner limits assumed): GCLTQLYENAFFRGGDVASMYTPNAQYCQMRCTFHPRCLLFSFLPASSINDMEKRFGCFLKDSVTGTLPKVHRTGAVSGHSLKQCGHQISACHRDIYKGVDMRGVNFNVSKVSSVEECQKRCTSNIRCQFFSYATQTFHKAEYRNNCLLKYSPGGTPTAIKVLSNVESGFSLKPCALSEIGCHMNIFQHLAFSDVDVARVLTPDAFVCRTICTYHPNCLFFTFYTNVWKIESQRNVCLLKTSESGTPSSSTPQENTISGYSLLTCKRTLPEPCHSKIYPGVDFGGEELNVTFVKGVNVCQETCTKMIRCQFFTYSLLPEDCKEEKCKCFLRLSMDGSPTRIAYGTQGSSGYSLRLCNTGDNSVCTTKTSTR
Description: Anti-protease activity before and after nebulization. Format: biochemical. As for the experimental part:
The aim of this study was to assess the anti-protease activity of Bikunin (1-170) described in Example 17 following nebulization. All studies were performed with Bikunin formulated in phosphate buffered saline, pH 7.4 (137 mM NaCl, 3 mM KCl, 3 mM KH2PO4, 8 mM Na2HPO4, 0.02 g/L Tween 80).
Raindrop® Medication Nebulizer: Bikunin was aerosolized at concentrations of 1 and 3 mg/mL. The nebulizer cup was filled with 2.5 mL of Bikunin solution. Aerosolisation was performed at 7.35 L/min or 35 psi.
Collison Nebulizer: Bikunin was aerosolised at a concentration of 4.7 mg/mL. The nebulizer cup was filled with 2.5 mL of Bikunin solution. Aerosolisation was performed at 35 psi.
Aerosolised Bikunin was collected using a twin impinger (6.4 um mean aerodynamic particle cut-off size at 60 L/min through the system). The impinger works on the principle of liquid impingement and divided the aerosol into a non-respirable fraction (>6.4 um collected in Stage 1) and a respirable fraction (<6.4 um collected in Stage 2).
Bikunin activity was measured in vitro by its inhibition of human plasma kallikrein.

Data set [2] deals with guinea pig tracheal epithelial cells. Description: Short circuit current (Isc) in cultured guinea pig tracheal epithelial (GPTE) cells. Format: cell-based. Particulars: 50 ug/mL; over a 30 minute period; FIG. 23. As for the experimental part: The aim of this study was to investigate the effect of Bikunin (1-170) (See Example 17) on Isc on GPTE cells in vitro. GPTE cells were seeded onto 1.2 cm diameter, 0.4 um pore size Snapwell™ inserts (Costar UK). Cells were grown to confluence and mounted in modified Ussing chambers 2-4 days after placement on air-liquid interface. Inserts were immersed in Krebs buffer (KBR) solution and bubbled with 95% O2/5% CO2 warmed to 370 C.
After a 20 minute equilibration period, transepithelial potential difference was then clamped to 0 mV using a WPI EVC 4000 voltage clamp. Ag/AgCl electrodes were used to monitor Isc. Once a stable baseline was achieved (typically 20-30 mins), cells were treated with amiloride (30 uM). Once a response to amiloride was obtained, it was washed out with KBR solution. After return to baseline and equilibration, Bikunin (1-170) described in Example 17 (10 to 50 ug/mL) or PBS was added. 30 minutes following agent treatment amiloride (30 uM) was added.

For data set [3], the system named is human bronchial epithelial cell (HBE). Particulars: cited from earlier work.
In another data set the test system is guinea pig trachea. Description: Tracheal potential difference in the guinea-pig. Particulars: 5 ug topical instillation; three hours of treatment; relative to vehicle; FIG. 15. Format: in vivo. As for the experimental part:
The aim of this study was to investigate the effect of the Kunitz serine protease inhibitor Bikunin, and the sodium channel blocker amiloride on guinea-pig tracheal potential difference 3 hours post treatment. These agents were delivered into the cephalad trachea by topical instillation. TPD was monitored 2 hours later for 60 minutes. The procedure used in this Example is described in Newton et al. in “Cilia, Mucus and Mucociliary Interactions,” Ed., Baum, G. L. et al., Marcel Dekker, New York, 1998; Newton et al., Ped. Pulm. S17, Abs. 364, 1998).
Aqueous formulations of Bikunin (1-170) (5 and 50 ug/mL (SEQ ID NO: 52)) (as described in Example 17 below) and amiloride (obtained from Sigma Chemicals, St. Louis, Mo., USA)(100 uM) were prepared, sterile filtered and endotoxin tested prior to use. […]
Two hours following agent treatment, guinea-pigs were anaesthetised for a second time with Hypnom® and Hypnovel® and immobilised in a supine position. Rectal temperature, measured with a thermistor probe was maintained at 37° C. by manual adjustment of a heat lamp. […] 20 min. following induction of i.m. anaesthesia the tracheal agar electrode was inserted into the cephalad trachea and tracheal potential difference was measured for 60 minutes. […]

In data set [4] the test system is ovine tracheal epithelial cells. Description: Short circuit current (Isc) in cultured ovine tracheal epithelial (OTE) cells. Format: cell-based. To be noted: 100 ug/mL; over a 90 minute period; FIG. 24. As for the experimental part:
The aim of this study was to investigate the effect of Bikunin (1-170) (See Example 17), on Isc in OTE cells in vitro. OTE cells were seeded onto 1.2 cm diameter, 0.4 um pore size Snapwell™ inserts (Costar UK). Cells were grown to confluence and mounted in modified Ussing chambers 3-5 days after placement on air-liquid interface. Inserts were immersed in Krebs buffer (KBR) solution and bubbled with 95% O2/5% CO2 warmed to 37° C.
After a 20 minute equilibration period, transepithelial potential difference was then clamped to 0 mV using a WPI EVC 4000 voltage clamp. Ag/AgCl electrodes were used to monitor Isc. Once a stable baseline was achieved (typically 30 mins), cells were treated with amiloride (10 uM). Once a response to amiloride was obtained, it was washed out with KBR solution. After return to baseline, Bikunin (1-170) described in Example 17 (25, 50 or 100 ug/mL) or PBS was added. 90 minutes following agent treatment amiloride (10 uM) was again added.

Read-outs that look alike come from different tables or passages of the source.

B1: CHO Bikunin (1-170): Glycosylated placental bikunin (1-170), SEQ ID NO: 52, expressed in Chinese hamster ovary cells (Example 17) (protein, listed as Homo sapiens)
chain: ADRERSIHDFCLVSKVVGRCRASMPRWWYNVTDGSCQLFVYGGCDGNSNNYLTKEECLKKCATVTENATGDLATSRNAADSSVPSAPRRQDSEDHSSDMFNYEEYCTANAVTGPCRASFPRWYFDVERNSCNNFIYGGCRGNKNSYRSEEACMLRCFRQQENPPLPLGSK
modifications: glycosylated, CHO-expressed
For orientation: Ki means a measure of affinity in units of concentration, obtained from inhibition or displacement. Regarding B1, in data set [1] (70 nM), the “Forskolin induced cAMP-mediated chloride secretion and monolayer resistance” value is on record as “unaffected”. Moreover, the sodium current entry is recorded as “decreases sodium current” in data set [1] (70 nM); “inhibited sodium current” in data set [1] (70 nM, listed as Bukinin); “inhibited sodium current” in data set [2]; “significantly inhibited sodium current” in data set [4]. Further, the “inhibition of Na+ Isc” value in data set [1] (5 ug.ml−1, normal HBE cells, n=6, further study) was 84%; in data set [3] (1.5 ug.ml−1: 70 nM, normal HBE cells, n=5-8 (McAulay et al 1998)), 54%. Further, in data set [1] (5 ug/mL, FIG. 20), the “sodium short circuit current” value is “decrease sodium short circuit current”. Moreover, the Ki in the data set with human plasma kallikrein (Collison nebulizer, 4.7 mg/mL, read-out: Activity (Ki), post-nebulization) came to 0.45 nM; with human plasma kallikrein (Collison nebulizer, 4.7 mg/mL, read-out: Activity (Ki), pre-nebulization) it was 0.27 nM; with human plasma kallikrein (Raindrop nebulizer, 1 mg/mL, read-out: Activity (Ki), post-nebulization) it was 0.76 nM; with human plasma kallikrein (Raindrop nebulizer, 1 mg/mL, read-out: Activity (Ki), pre-nebulization), 0.47 nM; with human plasma kallikrein (Raindrop nebulizer, 3 mg/mL, read-out: Activity (Ki), post-nebulization), 0.62 nM; with human plasma kallikrein (Raindrop nebulizer, 3 mg/mL, read-out: Activity (Ki), pre-nebulization) it was 0.52 nM. In addition, the stability to aerosolization entry in the data set with human plasma kallikrein (Raindrop and Collison nebulizers) is “stable to aerosolization and retained its anti-protease activity”. Besides, the “inhibition of the baseline Isc” value in data set [3] (70 nM, in 90 minutes (McAulay et al 1998)) is given as 58%. In addition, the tracheal potential difference entry in the data set with guinea pig trachea is reported as “inhibited the potential difference”.
